This is an account of results in US20250074943A1 (Amgen, published 2025).

“And” between values parts separate entries of the source, which are not always exact repeats. Equal values may be shown once. Bridge positions count the residues as written; N and C are the ends. Ends that are not written are not given here.

For assay [1], the target named is T1, recombinant DLL3 ectodomain (rhDLL3-Fc) (human, UniProt Q9NYJ7 27-492, biotinylated (NHS-LC-LC-biotin) in the BLI and SPR assays).
T1 construct: also called rDLL3-Fc; recombinant human DLL3 (rDLL3); not shown: Fc part
T1 sequence: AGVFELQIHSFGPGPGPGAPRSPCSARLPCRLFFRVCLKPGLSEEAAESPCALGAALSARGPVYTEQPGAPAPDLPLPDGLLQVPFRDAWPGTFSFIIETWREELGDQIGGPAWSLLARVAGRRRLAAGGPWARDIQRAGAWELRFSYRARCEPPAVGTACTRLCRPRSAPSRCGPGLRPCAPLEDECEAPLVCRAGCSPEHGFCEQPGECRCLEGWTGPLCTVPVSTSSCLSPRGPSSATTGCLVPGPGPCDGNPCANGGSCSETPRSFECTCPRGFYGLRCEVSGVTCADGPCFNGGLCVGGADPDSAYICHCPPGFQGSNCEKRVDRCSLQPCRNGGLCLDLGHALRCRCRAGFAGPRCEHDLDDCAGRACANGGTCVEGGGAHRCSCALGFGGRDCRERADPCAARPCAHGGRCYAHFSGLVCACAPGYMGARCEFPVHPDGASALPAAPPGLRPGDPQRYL
The experiment in a line: BLI (Octet), biotinylated rhDLL3-Fc on streptavidin sensors. How it is done:
Binding kinetic assays were performed using Bio-layer interferometry (BLI) technology. The recombinant DLL3 ectodomain (rhDLL3-Fc) was biotinylated using EZ-Link Sulfo-NHS-LC-LC-Biotin Kit according to the manufacturer's protocol (Pierce by Thermo Fisher Scientific). The recombinant protein was incubated with an excess of NHS-LC-LC Biotin ester, in a molar ratio of 1:3 (protein: biotin), at 25° C. for 90 min. The un-reacted biotin ester was removed by subsequent buffer exchange on 0.5 ml Zeba spin desalting columns 7K MWCO (Pierce by Thermo Fisher Scientific).
For orientation: BLI is a label-free optical method that tracks binding on a fibre tip over time.

For assay [2], the target named is T1, recombinant DLL3 ectodomain (rhDLL3-Fc). The experiment in a line: phage ELISA on rDLL3-Fc. In general terms: ELISA stands for enzyme-linked immunosorbent assay.
Procedure: The pools of phages obtained after each round of selection were tested by Phage-ELISA for their binding to rDLL3-Fc and counter-screened on hIgG-Fc. Briefly, proteins were immobilized on NUNC-Maxisorp ELISA plates. Then the plates were washed and blocked. 100 μl of pre-blocked phages were added to the blocked plate and incubated for 1 hr at room temperature. Anti-M13 HRP conjugated mAb were added and the plates were read on a Multiskan Ascent (Thermo) Elisa reader at A370 nm after the addition of TMB (Sigma).
Assay [3] addresses T2, human DLL3 expressed on the surface of cells (human, UniProt Q9NYJ7 27-618).
T2 construct: Stably transfected CHO or HEK293 cells; also called huDLL3; hDLL3
T2 sequence: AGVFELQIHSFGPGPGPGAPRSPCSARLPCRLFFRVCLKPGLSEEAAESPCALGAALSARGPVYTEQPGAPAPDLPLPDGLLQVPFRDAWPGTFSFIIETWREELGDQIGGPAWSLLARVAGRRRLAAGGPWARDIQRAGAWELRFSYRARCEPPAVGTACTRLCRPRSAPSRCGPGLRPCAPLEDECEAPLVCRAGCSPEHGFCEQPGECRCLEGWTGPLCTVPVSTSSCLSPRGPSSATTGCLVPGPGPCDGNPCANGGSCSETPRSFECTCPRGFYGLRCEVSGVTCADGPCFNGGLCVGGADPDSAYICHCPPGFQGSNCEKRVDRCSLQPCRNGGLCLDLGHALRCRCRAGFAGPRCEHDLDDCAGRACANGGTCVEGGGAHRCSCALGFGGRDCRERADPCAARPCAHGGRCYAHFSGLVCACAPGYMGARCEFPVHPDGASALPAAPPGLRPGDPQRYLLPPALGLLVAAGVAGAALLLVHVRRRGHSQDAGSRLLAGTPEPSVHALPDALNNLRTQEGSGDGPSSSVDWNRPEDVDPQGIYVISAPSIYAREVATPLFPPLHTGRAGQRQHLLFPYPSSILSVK
The experiment in a line: phage cell ELISA/FACS on DLL3-expressing cells.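 Further: phages incubated 1 h at room temperature with cells overexpressing human DLL3, read by flow cytometry fluorescence, then fixed-cell ELISA with anti-M13-HRP at A370 nm, parental cells alongside.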
Procedure: The pools of phages were also screened for their binding to cells overexpressing human DLL3 on their surface. Cells were detached, counted and re-suspended at 1.8×10⁶ cell/ml in FACS buffer containing 2% FBS. Pre-blocked phages were then added to the cells and incubated for 1 hr at room temperature. […] Cells were then washed and re-suspended into FACS buffer. Fluorescence was acquired using a flow cytometer (FACS Canto/Becton Dickinson).
Phage clones with signal higher than four-fold above the background were further tested for their binding to DLL3 on the surface of cells expressing DLL3 by cell ELISA. Briefly, parental cells and cells overexpressing DLL3 were plated on 96 well plate the day before the assay. The cells were then fixed and washed before the addition of pre-blocked phages as previously described. The cells were then washed and anti-M13-HRP was added. The signal was measured using a Multiskan Ascent (Thermo) ELISA reader at A370 nm.

Take AETVEFYGCSVNADGWTCSW-NH2 (disulfide 9-18 (inferred)) [PepSP1170]: in assay [1], the Kd was found to be 166 nM and the “RT (residence time)” value came to 43 s.
For AETVEFYGCYGDRNDYTCTW (not shown: M13 pIII coat protein) [SEQ ID NO 42], the binding result in assay [2] and in assay [3] was “binds” each time.
As for AETVEFYGCSMDWRGVTCAW (not shown: M13 pIII coat protein) [SEQ ID NO 49], the binding result in assay [2] and in assay [3] was “binds” each time.
Consider AETVEFYGCYGDRNDYTCTW-NH2 (disulfide 9-18 (inferred)) [PepSP1178], for which, in assay [1], the Kd was 147 nM and the “RT (residence time)” value was 75.9 s.
As to AETVEFWTCHGNADEWTCSW (not shown: M13 pIII coat protein) [SEQ ID NO 52], the binding result in assay [2] and in assay [3] was “binds” in each case.
Consider AETVEFWTCHGNADEWTCSW-NH2 (disulfide 9-18 (inferred)) [PepSP1162], for which, in assay [1], the Kd came out at 159 nM and the “RT (residence time)” value amounted to 51 s.
In the same order, the values of AETVEFWSCHYSYWTVSCGT-NH2 (disulfide 9-18 (inferred)) [PepSP1157] are 123 nM and 89 s.
In the same order, the values of AETVEFYGCSMDWRGVTCAW-NH2 (disulfide 9-18 (inferred)) [PepSP1158] are 643 nM and 31 s.
Take AETVEFYGCTGDAYEYTCTW (not shown: M13 pIII coat protein) [SEQ ID NO 45]: the binding result in assay [2] and in assay [3] was “binds” each time.
On to AETVEFWSCHYSYWTVSCGT (not shown: M13 pIII coat protein) [SEQ ID NO 48], for which the binding result in assay [2] and in assay [3] was “binds” each time.
In the case of AETVEFLGCHGDNSEWTCVW-NH2 (disulfide 9-18 (inferred)) [PepSP1163], in assay [1], the Kd was 69 nM and 68.7 nM; the “RT (residence time)” value came to 167 s.
AETVEFYGCQYYGWDYTCAW-NH2 (disulfide 9-18 (inferred)) [PepSP1176]: in assay [1], the Kd was 207 nM and the “RT (residence time)” value was determined as 67 s.
With AETVEFRGCTGNVYDWTCVW (not shown: M13 pIII coat protein) [SEQ ID NO 51], the binding result in assay [2] and in assay [3] was “binds” each time.
Turning to AETVEFLGCHGDNSEWTCVW (not shown: M13 pIII coat protein) [SEQ ID NO 43], the binding result in assay [2] and in assay [3] was “binds” each time.
Consider AETVEFDYCYGDVEEWTCVY-NH2 (disulfide 9-18 (inferred)) [PepSP1166], for which, in assay [1], the Kd worked out at 145 nM and the “RT (residence time)” value was found to be 48 s.
Consider AETVEFWDCWGNTDDWTCTW (not shown: M13 pIII coat protein) [SEQ ID NO 41], for which the binding result in assay [2] and in assay [3] was “binds” in each case.
AETVEYWRCDWYEETVACGT (not shown: M13 pIII coat protein) [SEQ ID NO 47]: the binding result in assay [2] and in assay [3] was “binds” in each case.
Consider AETVEFWSCKWWGGAADEYTYSCGW (not shown: M13 pIII coat protein) [SEQ ID NO 44], for which the binding result in assay [2] and in assay [3] was “binds” in each case.
With AETVEFDYCLWAPDAWGCQN-NH2 (disulfide 9-18) [PepSP1159], in assay [1], the Kd is 900 nM and the “RT (residence time)” value worked out at 6 s.
For AETVEFWTCYWTEGVSGCRW (not shown: M13 pIII coat protein) [SEQ ID NO 46], the binding result in assay [2] and in assay [3] was “binds” in each case.
AETVEFYGCETYSGGWTCLW-NH2 (disulfide 9-18 (inferred)) [PepSP1167]: in assay [1], the Kd amounted to 399 nM and the “RT (residence time)” value stood at 47 s.
The corresponding values for AETVEFDGCKGDWYEWTCWW-NH2 (disulfide 9-18 (inferred)) [PepSP1164] are 125 nM and 125 s.
The corresponding values for AETVEFYGCWGNYNDYTCSW-NH2 (disulfide 9-18 (inferred)) [PepSP1177] are 236 nM and 52 s.
Take AETVEFYGCKWDWKGWTCAW-NH2 (disulfide 9-18 (inferred)) [PepSP1168]: in assay [1], the Kd came to 568 nM and the “RT (residence time)” value amounted to 44 s.
In the same order, the values of AETVEYWRCDWYEETVACGT-NH2 (disulfide 9-18 (inferred)) [PepSP1155] are 155 nM and 177 s.
In the case of AETVEFYGCYGEQEQWTCLW-NH2 (disulfide 9-18 (inferred)) [PepSP1173], in assay [1], the dissociation constant Kd turned out to be 106 nM and the “RT (residence time)” value is 101 s.
AETVEFWTCYWTEGVSGCRW-NH2 (disulfide 9-18 (inferred)) [PepSP1151]: in assay [1], the Kd came out at 125 nM and the “RT (residence time)” value came out at 167 s.
The corresponding values for AETVEFYGCTGDAYEYTCTW-NH2 (disulfide 9-18 (inferred)) [PepSP1147] are 59 nM and 65.6 s.
Regarding AETVEFRGCTGNVYDWTCVW-NH2 (disulfide 9-18 (inferred)) [PepSP1160], in assay [1], the Kd worked out at 494 nM and the “RT (residence time)” value was found to be 47 s.
In the same order, the values of AETVEFWSCKWWGGAADEYTYSCGW-NH2 (disulfide 9-23 (inferred)) [PepSP1182] are 75.8 nM and 96.6 s.
In the same order, the values of WDCWGNTDDWTCTW-NH2 (disulfide 3-12 (inferred), PepSP1161 without AETVEF) [PepSP1269] are 181 nM and 20 s.
In the same order, the values of AETVEFYGCRGGDGEWTCVW-NH2 (disulfide 9-18 (inferred)) [PepSP1165] are 263 nM and 66 s.
Regarding WGCTGTWGNETCWW-NH2 (disulfide 3-12 (inferred), PepSP1146 without AETVEF) [PepSP1213], in assay [1], the Kd is 7500 nM and the “RT (residence time)” value was determined as 1.36 s.

One may read the Kd as a measure of binding affinity in units of concentration.
